Drawing on paper PMC7417313, “Characterization of Binding Properties of Individual Functional Sites of Human Complement Factor H” (Frontiers in Immunology, 2020), this text covers Kd for 1 molecule.

This assay has as its target T1, C3b (human).
T1 construct: human complement C3, beta chain, as in C3b; human complement C3, alpha' chain of C3b (alpha chain without C3a); Mr 176,000 used; also called soluble C3b; fluid phase C3b
Nature of the assay: SPR; His-tagged rH fragment held on a Ni-charged NTA chip (BIAcore X or 3000; 500-1,000 RU, reloaded for each injection), C3 protein injected in HBS-P (10 mM HEPES pH 7.4, 150 mM NaCl, 0.005% P20) at 5 μL/min, 25°C; reference cell with nickel only; equilibrium levels fitted to a one-site equation. The settings on record: both partners purified. In general terms: SPR reads the build-up and loss of mass on a sensor chip optically.

B1: recombinant Factor H fragment rH 6-15 (domain or fragment)
chain: PCDYPDIKHGGLYHENMRRPYFPVAVGKYYSYYCDEHFETPSGSYWDHIHCTQDGWSPAVPCLRKCYFPYLENGYNQNYGRKFVQGKSIDVACHPGYALPKAQTTVTCMENGWSPTPRCIRVKTCSKSSIDIENGFISESQYTYALKEKAKYQCKLGYVTADGETSGSITCGKDGWSAQPTCIKSCDIPVFMNARTKNDFTWFKLNDTLDYECHDGYESNTGSTTGSIVCGYNGWSDLPICYERECELPKIDVHLVPDRKKDQYKVGEVLKFSCKPGFTIVGPNSVQCYHFGLSPDLPICKEQVQSCGPPPELLNGNVKEKTKEEYGHSEVVEYYCNPRFLMKGPNKIQCVDGEWTTLPVCIVEESTCGDIPELEHGWAQLSSPPYYYGDSVEFNCSESFTMIGHRSITCIHGVWTQLPQCVAIDKLKKCKSSNLIILEEHLKNKKEFDHNSNIRYRCRGKEGWIHTVCINGRWDPEVNCSMAQIQLCPPPPQIPNSHNMTTTLNYRDGEKVSVLCQENYLIQEGEEITCKDGRWQSIPLCVEKIPCSQPPQIEHGTINSSRSSQESYAHGTKLSYTCEGGFRISEENETTCYMGKWSSPPQCEG
modifications: Limits from Sushi 6 start to Sushi 15 end (928 by convention, as the candidate feature list is cut off after Sushi 12). Residue 402 is set to Tyr as printed (Y402 variant), whichever allele the entry
B1 yielded a Kd of 15 µM. This lies in the double-digit micromolar range.

What is called Kd is the constant that tells how readily two partners part at equilibrium. A higher Kd goes with a looser complex.
